{"source": "paper PMC6250738", "assay_in_all_cases": "SEC; Superdex 200 10/30 GL, PBS, native conditions; MW from elution volume against protein standards", "key": {"[1]": {"target": "chondroitinase ABC I-TriggerTrimer-galectin-3 trimeric nanoassembly"}, "[2]": {"target": "NanoLuc luciferase-TriggerTrimer-galectin-3 trimeric nanoassembly (deep sea shrimp | not stated | human)"}, "[3]": {"target": "superfolder green fluorescent protein-TriggerTrimer-galectin-3 trimeric nanoassembly"}}, "data": [{"substance": "chondroitinase ABC I-TriggerTrimer-galectin-3 trimeric nanoassembly", "values": [{"measurement": "stoichiometry N", "setting": "[1]", "value": 3}]}, {"substance": "NanoLuc luciferase-TriggerTrimer-galectin-3 trimeric nanoassembly", "values": [{"measurement": "stoichiometry N", "setting": "[2]", "value": 3}]}, {"substance": "superfolder green fluorescent protein-TriggerTrimer-galectin-3 trimeric nanoassembly", "values": [{"measurement": "stoichiometry N", "setting": "[3]", "value": 3}]}]}
